Measured values as given in article PMC12699829, “Development of a glutamine-responsive MRI contrast agent” (Chemical Science, 2025).
Substitutions are numbered along the chain they refer to. Names may count otherwise. Like-named read-outs stand apart in the source and are kept apart here.

Tests used:
Format in all cases: physicochemical
[1] = T1 and T2 relaxivity measurements at 9.4 T (400 MHz NMR); conditions: for Holo/Apo % r1 Change / Holo/Apo % r2 Change: 37 °C; for r1 (Holo) / r2 (Holo) / r1 (Apo) / r2 (Apo): PBS buffer pH 7.4, 37 °C; for r1 (Holo) / r2 (Holo): with Gln; for r1 (Apo) / r2 (Apo): without Gln
Description: The effectiveness of a contrast agent depends on its “relaxivity”, which is measured in units of mM^−1 s^−1, and quantifies how much a given concentration of the contrast agent improves water relaxation rates. T1 and T2 relaxivities are denoted r1 and r2, respectively, and are calculated according to eqn (1):1 [drawing 1] Here, Ti and Ti^0 are the relaxation times in the presence and absence of the contrast agent, respectively, and [C] is the concentration of the contrast agent. […] The relaxivity of a contrast agent depends not only on the properties of the molecule but also on the strength of the magnetic field used for the measurement. Whereas early MRI instruments were relatively weak (<1 T), the modern clinical standard has risen to 1–3 T, wth an increasing number of even more powerful instruments (>3 T) in recent years. Thus, we performed relaxivity experiments at both the most clinically relevant field strengths 1.4 T and at the more cutting-edge field strength of 9.4 T.
10% D 2O (assay buffer). S tock solutions of swArM in assay buffer was prepared at1.11, 0.83, 0.56, and 0.28 mM. Apo- and holo-swArM samples were prepared from the same stock by adding either 20 μL assay buffer or 20 μL 0. 1 M Gln in assay buffer, to 180 μL of protein solution, respectively. Final protein concentrations were verified using the molar extinction coefficient ε28 0 = 25.9 mM -1 cm -1.
B. NM R M easu r ements . Relaxivities of all variants were determined at 37 °C from spectra taken at 9.4 T (400 mHz) using a Varian Inova 400 -MHz NMR spectrometer equipped with a Nalorac, 5 mm, DR probe. Select variants were also investigated at 32°C at 1.4 T (60 mHz) using a Nanalysis NMReady60 Pro instrument. Measurements were typically performed on 4 diffe rent concentrations of contrast agent and on the same buffer with no contrast agent. Temperature- dependent relaxivity measurements were performed using a Varian Inova 500-MHz NMR spectrometer, equipped with a Vari an, 5-mm, TR PFG probe with inverse proton detection. Temperature- dependent relaxivity was determined using either two concen trations of contrast agent ( 0. 5 and 1. 0 mM ) or t hree (0. 3, 0. 6, and 0.9 mM) . The temperature was calibrated using the 1H NMR signal of ethylene glycol.20 T1 measurements were performed using the inversion recovery method21 and T2 measurements were performed using the Carr–Purcell–Meiboom –G ill (CPMG) p ulse […]
Six or more pulse delay times (τ) were chosen to ensure coverage of the Ti under observation, and the delay between pulse sequences was set to at least 5-times T1.
Optimized 90° and 180° pulse widths were determined on the day of the experiment, and typically spanned 16‒2 0 μs (90° pulse width) and 32‒4 0 μs (180° pulse width). The delay in the CPMG pulse sequence was set to at least 50 times the 180° pulse width to allow at least four echo loops .
C. A n al ysi s . To determine Ti, data were analyzed via MestReNova software. For each spectrum, an integration was performed over the water peak, and the values obtained (dependent variable) were plotted against τ (independent variable). […]
then fit to a monoexponential decay according to Eq. 1. From these analyses, we obtain Ti for each sample concentration and type.
The quantity described by Eq. 2, where Ti at zero added sample is T0, was then plotted against the swArM concentration and a linear regression model was applied. The slope of this line gives the contrast agent relaxivity ri.

[2] = T1 and T2 relaxivity measurements at 1.4 T (60 MHz NMR); conditions: for Holo/Apo % r1 Change / Holo/Apo % r2 Change: 32 °C; for r1 (Holo) / r2 (Holo) / r1 (Apo) / r2 (Apo): PBS buffer pH 7.4, 32 °C; for r1 (Holo) / r2 (Holo): with Gln; for r1 (Apo) / r2 (Apo): without Gln
[3] = Stability of swArM samples prepared in PBS buffer for relaxivity studies
Text: Next, we set out to investigate alternative ligands to coordinate Ln^3+ ions. As shown in Chart 1, we investigated two DOTA derivatives (DOTA-mal^N and DOTA-mal^C) as well as an acyclic version of DOTA, diethylene triamine pentaacetic acid (DTPA), and a six-coordinate version of the eight-coordinate DOTA ligand, nonane triacetic acid (NOTA). […] This ligand has previously been tested with Gd^3+ as an MRI contrast agent in PBS buffer, with no reported stability issues.[40] The fact that conjugation to our protein decreased the kinetic stability of Gd(NOTA) exemplifies the impact of the specific protein environment.

[4] = free contrast agent control, PBS pH 7.4, 37 °C
[5] = listed as [Dy(DOTA-mal^N)]72-GlnBP

## O=C([O-])CN1CCN(CC(=O)[O-])CCN(CC(=O)[O-])CCN(CC(=O)[O-])CC1.[Gd+3] [Gd(DOTA), reference compound]
[1]; free contrast agent control
  +Gln/−Gln % r1 Change: 0 ± 3%
  +Gln/−Gln % r2 Change: 1 ± 6%
[1]; [4]
  r1 (+Gln): 2.80 ± 0.07 mM⁻¹ s⁻¹
  r1 (−Gln): 2.82 ± 0.04 mM⁻¹ s⁻¹
  r2 (+Gln): 3.6 ± 0.2 mM⁻¹ s⁻¹
  r2 (−Gln): 3.5 ± 0.1 mM⁻¹ s⁻¹

B1: [Gd(DOTA-mal^N)]72: swArM: Gd(DOTA-mal^N) metallocofactor covalently attached at Cys72 of T72C E. coli glutamine-binding protein (GlnBP) (conjugate, UniProt P0AEQ3 23-248, looked up, variant T72C)
Glutamine-binding periplasmic …: ADKKLVVATDTAFVPFEFKQGDKYVGFDVDLWAAIAKELKLDYELKPMDFSGIIPALQTKNVDLALAGITICDERKKAIDFSDGYYKSGLLVMVKANNNDVKSVKDLDGKVVAVKSGTGSVDYAKANIKTKDLRQFPNIDNAYMELGTNRADAVLHDTPNILYFIKTAGNGQFKAVGDSLEAQQYGIAFPKGSDELRDKVNGALKTLRENGTYNEIYKKWFGTEPK
modifications: Gd(DOTA-malN) at Cys72
[1]
  Holo/Apo % r1 Change: –1 ± 2%
  Holo/Apo % r2 Change: 20 ± 5%
  r1 (Holo): 4.32 ± 0.07 mM⁻¹ s⁻¹
  r2 (Holo): 43.2 ± 0.8 mM⁻¹ s⁻¹
  r1 (Apo): 4.35 ± 0.07 mM⁻¹ s⁻¹
  r2 (Apo): 36 ± 1 mM⁻¹ s⁻¹
[1]; listed as [Gd(DOTA-malN)]72
  r1 (Holo): 4.32 mM⁻¹ s⁻¹
  r1 (Apo): 4.35 mM⁻¹ s⁻¹
[2]
  Holo/Apo % r1 Change: 4 ± 2%
  Holo/Apo % r2 Change: 11 ± 2%
  r1 (Holo): 20.4 ± 0.3 mM⁻¹ s⁻¹
  r2 (Holo): 41.5 ± 0.4 mM⁻¹ s⁻¹
  r1 (Apo): 19.5 ± 0.4 mM⁻¹ s⁻¹
  r2 (Apo): 37.2 ± 0.7 mM⁻¹ s⁻¹
[2]; listed as [Gd(DOTA-malN)]72
  r1 (Holo): 20.4 mM⁻¹ s⁻¹
  r1 (Apo): 19.5 mM⁻¹ s⁻¹

B2: [Gd(DTPA-malN)]72: swArM: Gd complex of maleimide-functionalized DTPA attached at Cys72 of T72C-GlnBP (conjugate, UniProt P0AEQ3 23-248, looked up, variant T72C)
Glutamine-binding periplasmic …: B1 Glutamine-binding periplasmic …
modifications: Gd(DTPA-mal) at Cys72
notes: swArM: Gd complex of maleimide-functionalized DTPA attached at Cys72 of T72C-GlnBP
[1]
  Holo/Apo % r1 Change: 3 ± 3%
  Holo/Apo % r2 Change: 10 ± 10%
  r1 (Holo): 4.14 ± 0.05 mM⁻¹ s⁻¹
  r2 (Holo): 72 ± 4 mM⁻¹ s⁻¹
  r1 (Apo): 4.0 ± 0.1 mM⁻¹ s⁻¹
  r2 (Apo): 65 ± 4 mM⁻¹ s⁻¹
[3]
  stability of the swArM in PBS buffer (metal loss, precipitate): did not observe loss of metal to solution over time
[2]
  Holo/Apo % r1 Change: 7 ± 4%
  Holo/Apo % r2 Change: 11 ± 6%
  r1 (Holo): 17.8 mM⁻¹ s⁻¹
  r2 (Holo): 30.3 ± 0.9 mM⁻¹ s⁻¹
  r1 (Apo): 16.7 mM⁻¹ s⁻¹
  r2 (Apo): 27 ± 1 mM⁻¹ s⁻¹

B3: [Dy(DOTA-mal^N)]72: swArM: Dy(DOTA-mal^N) attached at Cys72 of T72C-GlnBP (conjugate, UniProt P0AEQ3 23-248, looked up, variant T72C)
Glutamine-binding periplasmic …: B1 Glutamine-binding periplasmic …
modifications: Dy(DOTA-malN) at Cys72
notes: swArM: Dy(DOTA-mal^N) attached at Cys72 of T72C-GlnBP
[1]
  Holo/Apo % r1 Change: –1 ± 5%
  Holo/Apo % r2 Change: 36 ± 3%
  r1 (Holo): 0.37 ± 0.02 mM⁻¹ s⁻¹
  r1 (Apo): 0.37 ± 0.01 mM⁻¹ s⁻¹
  r2 (Apo): 6.83 ± 0.04 mM⁻¹ s⁻¹
[1]; [5]
  r2 (Holo): 9.3 ± 0.1 mM⁻¹ s⁻¹
  r2 (Apo): 6.86 ± 0.08 mM⁻¹ s⁻¹
[1]; listed as [Dy(DOTA-malN)]72
  r1 (Apo): 0.37 mM⁻¹ s⁻¹
[1]; apo/holo not specified
  r1 value: below the practical detection limit
[2]
  Holo/Apo % r1 Change: 4 ± 5%
  Holo/Apo % r2 Change: 40 ± 20%
  r1 (Holo): 0.201 mM⁻¹ s⁻¹
  r1 (Apo): 0.176 mM⁻¹ s⁻¹

B4: [Dy(DOTA-malN)]72-G119K: swArM: Dy(DOTA-mal^N) on T72C/G119K double variant of GlnBP (conjugate, UniProt P0AEQ3 23-248, looked up, variant T72C G119K)
Glutamine-binding periplasmic …: B1 Glutamine-binding periplasmic … with G119K
modifications: Dy(DOTA-malN) at Cys72
notes: swArM: Dy(DOTA-mal^N) on T72C/G119K double variant of GlnBP
[1]
  Holo/Apo % r2 Change: 15 ± 4%
  r2 (Holo): 8.5 ± 0.2 mM⁻¹ s⁻¹
  r2 (Apo): 7.39 ± 0.07 mM⁻¹ s⁻¹

B5: [Dy(DOTA-malN)]72-A126D: swArM: Dy(DOTA-mal^N) on T72C/A126D double variant of GlnBP (conjugate, UniProt P0AEQ3 23-248, looked up, variant T72C A126D)
Glutamine-binding periplasmic …: B1 Glutamine-binding periplasmic … with A126D
modifications: Dy(DOTA-malN) at Cys72
notes: swArM: Dy(DOTA-mal^N) on T72C/A126D double variant of GlnBP
[1]
  Holo/Apo % r2 Change: 23 ± 5%
  r2 (Holo): 11.7 ± 0.09 mM⁻¹ s⁻¹
  r2 (Apo): 9.5 ± 0.3 mM⁻¹ s⁻¹

B6: [Dy(DOTA-mal^N)]72-A126Y: swArM: Dy(DOTA-mal^N) on T72C/A126Y double variant of GlnBP (conjugate, UniProt P0AEQ3 23-248, looked up, variant T72C A126Y)
Glutamine-binding periplasmic …: B1 Glutamine-binding periplasmic … with A126Y
modifications: Dy(DOTA-malN) at Cys72
notes: swArM: Dy(DOTA-mal^N) on T72C/A126Y double variant of GlnBP
[1]
  Holo/Apo % r2 Change: 58 ± 6%
  r2 (Holo): 10.8 ± 0.2 mM⁻¹ s⁻¹
  r2 (Apo): 6.8 ± 0.2 mM⁻¹ s⁻¹

B7: [Dy(DOTA-malC)]72-A126Y: swArM: Dy(DOTA-mal^C), linker on carbon of carboxylate arm, on T72C/A126Y GlnBP (conjugate, UniProt P0AEQ3 23-248, looked up, variant T72C A126Y)
Glutamine-binding periplasmic …: B1 Glutamine-binding periplasmic … with A126Y
modifications: Dy(DOTA-malC) at Cys72
notes: swArM: Dy(DOTA-mal^C), linker on carbon of carboxylate arm, on T72C/A126Y GlnBP
[1]
  r2 (Holo): 9.6 ± 0.2 mM⁻¹ s⁻¹
  r2 (Apo): 9.7 ± 0.1 mM⁻¹ s⁻¹

B8: [Dy(DOTA-mal^N)]72-N127Y: swArM: Dy(DOTA-mal^N) on T72C/N127Y double variant of GlnBP (conjugate, UniProt P0AEQ3 23-248, looked up, variant T72C N127Y)
Glutamine-binding periplasmic …: B1 Glutamine-binding periplasmic … with N127Y
modifications: Dy(DOTA-malN) at Cys72
notes: swArM: Dy(DOTA-mal^N) on T72C/N127Y double variant of GlnBP
[1]
  Holo/Apo % r2 Change: 40 ± 7%
  r2 (Holo): 9.1 ± 0.2 mM⁻¹ s⁻¹
  r2 (Apo): 6.5 ± 0.3 mM⁻¹ s⁻¹

B9: [Gd(DOTA-malN)]72-Q183K: swArM: Gd(DOTA-mal^N) on T72C/Q183K double variant of GlnBP (conjugate, UniProt P0AEQ3 23-248, looked up, variant T72C Q183K)
Glutamine-binding periplasmic …: B1 Glutamine-binding periplasmic … with Q183K
modifications: Gd(DOTA-malN) at Cys72
notes: swArM: Gd(DOTA-mal^N) on T72C/Q183K double variant of GlnBP
[1]
  r2 (Holo): 28.2 ± 0.8 mM⁻¹ s⁻¹
  r2 (Apo): 30.9 ± 0.2 mM⁻¹ s⁻¹

B10: [Dy(DOTA-malN)]72-Q183Y: swArM: Dy(DOTA-mal^N) on T72C/Q183Y double variant of GlnBP (conjugate, UniProt P0AEQ3 23-248, looked up, variant T72C Q183Y)
Glutamine-binding periplasmic …: B1 Glutamine-binding periplasmic … with Q183Y
modifications: Dy(DOTA-malN) at Cys72
notes: swArM: Dy(DOTA-mal^N) on T72C/Q183Y double variant of GlnBP
[1]
  Holo/Apo % r2 Change: 29 ± 4%
  r2 (Holo): 18.0 ± 0.4 mM⁻¹ s⁻¹
  r2 (Apo): 14.0 ± 0.1 mM⁻¹ s⁻¹

B11: [Gd(NOTA)mal^N)]72-GlnBP: swArM: Gd complex of maleimide-functionalized NOTA attached at Cys72 of T72C-GlnBP (conjugate, UniProt P0AEQ3 23-248, looked up, variant T72C)
Glutamine-binding periplasmic …: B1 Glutamine-binding periplasmic …
modifications: Gd(NOTA-mal) at Cys72
[3]; PBS buffer
  stability of the swArM in PBS buffer (metal loss, precipitate): precipitate formation
